Consider 17 molecules from patent US20050032186, “Regulatory zinc finger proteins” (published 2005).

For one data set, the target named is F2612 (artificial (human zinc finger domains)). Put plainly: cell_activity; endogenous VEGF-A conc., unit inferred; parental vector 400. As to conditions: tags: HA, NLS, p65.
A further data set addresses F475 (artificial (human zinc finger domains)). Put plainly: cell_activity; endogenous VEGF-A conc., unit not given; parental vector 400.
For the next data set, the target named is F2679 (artificial (human zinc finger domains)). The data set is described as follows: cell_activity; endogenous VEGF-A conc., unit inferred; parental vector 400. As to conditions: tags: HA, NLS, p65.
For another data set, the target named is F2634 (artificial (human zinc finger domains)). The data set is described as follows: cell_activity; endogenous VEGF-A conc., unit not given; parental vector 400. As to conditions: tags: HA, NLS, p65.
A further data set concerns the target F2604 (artificial (human zinc finger domains)). Described as above. As to conditions: tags: HA, NLS, p65.
The next data set concerns the target F2644 (artificial (human zinc finger domains)). The description is as above. As to conditions: tags: HA, NLS, p65.
Another data set deals with F2633 (artificial (human zinc finger domains)). The data set is described as above. As to conditions: tags: HA, NLS, p65.
The next data set addresses F2607 (artificial (human zinc finger domains)). Put plainly: cell_activity; endogenous VEGF-A conc., unit inferred; parental vector 400. As to conditions: tags: HA, NLS, p65.
The next data set deals with F2605 (artificial (human zinc finger domains)). The data set is described as follows: cell_activity; endogenous VEGF-A conc., unit not given; parental vector 400. As to conditions: tags: HA, NLS, p65.
Another data set concerns the target F109-KRAB (artificial (human zinc finger domains)). The data set is described as follows: cell_activity; luciferase reporter with native VEGF promoter -950 to +450, 293 cells, 30 ng plasmid. As to conditions: tags: HA, NLS. How it is done: (§1) Human embryonic kidney 293 cells were maintained in Dulbecco's modified Eagle medium (DMEM) supplemented with 100 units/ml penicillin, 100 μg/ml streptomycin, and 10% fetal bovine serum (FBS). For the luciferase assay, 10⁴ cells/well were pre-cultured in a 96-well plate. Using a LIPOFECTAMINE™ transfection kit (Life Technologies, Rockville, Md.), 293 cells were transfected with 25 ng of a reporter plasmid in which the native VEGF-A promoter was fused to the luciferase gene in pGL3-basic (Promega), and 25 ng of a plasmid encoding a zinc finger protein. After 48 h of incubation, luciferase activity was measured with a DUAL LUCIFERASE™ assay kit (Promega) using a TD-20/20 luminometer (Turner Designs Inc., Sunnyvale, Calif.).
(§2) 293 cells were transfected with luciferase reporter plasmid pGL3-VEGFprom containing native human VEGF promoter(−950 to +450 from the transcription initiation site) and 30 ng of pLFD-F121-KRAB or pLFD-F109-KRAB. Luciferase activity was measured as described. Fold repression values were calculated by normalizing the firefly luciferase activity against the renilla luciferase activity and the result was compared with that of the control wherein 293 cells were transfected with the control vector pLFD and the reporter plasmid.
On the technique in general: In a reporter assay the amount or activity of a reporter protein is the signal.

For a further data set, the target named is F480 (artificial (human zinc finger domains)). The data set is described as follows: cell_activity; endogenous VEGF-A conc., unit not given; parental vector 400.
In another data set the target is F2610 (artificial (human zinc finger domains)). The data set is described as above. As to conditions: tags: HA, NLS, p65.
A further data set deals with F121-KRAB (artificial (human zinc finger domains)). Put plainly: cell_activity; luciferase reporter with native VEGF promoter -950 to +450, 293 cells, 30 ng plasmid. As to conditions: tags: HA, NLS. As to the method: as §1, §2
A further data set concerns the target F121 (artificial (human zinc finger domains)). Put plainly: cell_activity; endogenous VEGF-A conc., unit inferred; parental vector 400.
The next data set has as its target F2646 (artificial (human zinc finger domains)). The data set is described as follows: cell_activity; endogenous VEGF-A conc., unit not given; parental vector 400. As to conditions: tags: HA, NLS, p65.
The target of the next data set is F2638 (artificial (human zinc finger domains)). The description is as above. As to conditions: tags: HA, NLS, p65.
The next data set addresses F2615 (artificial (human zinc finger domains)). Described as above. As to conditions: tags: HA, NLS, p65.
Another data set addresses F2650 (artificial (human zinc finger domains)). Described as above. As to conditions: tags: HA, NLS, p65.

F2644 (artificial (human zinc finger domains)), sequence (chain, as listed by the source): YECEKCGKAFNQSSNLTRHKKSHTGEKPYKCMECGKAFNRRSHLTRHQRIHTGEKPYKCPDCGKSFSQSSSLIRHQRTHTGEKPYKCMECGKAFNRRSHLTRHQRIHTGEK
F2604 (artificial (human zinc finger domains)), sequence (chain, as listed by the source): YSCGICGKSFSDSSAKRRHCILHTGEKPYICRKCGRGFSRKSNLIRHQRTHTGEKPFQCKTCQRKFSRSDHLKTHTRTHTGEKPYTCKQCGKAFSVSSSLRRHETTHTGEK
F2612 (artificial (human zinc finger domains)), sequence (chain, as listed by the source): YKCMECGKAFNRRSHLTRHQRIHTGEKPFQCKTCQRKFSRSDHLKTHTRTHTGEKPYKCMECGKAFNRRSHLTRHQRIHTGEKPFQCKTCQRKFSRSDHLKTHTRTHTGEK
F2650 (artificial (human zinc finger domains)), sequence (chain, as listed by the source): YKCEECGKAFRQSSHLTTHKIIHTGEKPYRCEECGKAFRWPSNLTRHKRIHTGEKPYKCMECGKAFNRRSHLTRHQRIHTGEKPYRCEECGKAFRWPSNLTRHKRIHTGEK
F109-KRAB (artificial (human zinc finger domains)), sequence (chain, as listed by the source): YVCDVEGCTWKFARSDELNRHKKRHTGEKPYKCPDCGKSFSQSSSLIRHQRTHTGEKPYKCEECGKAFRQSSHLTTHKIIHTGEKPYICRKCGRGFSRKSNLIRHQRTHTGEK
F2638 (artificial (human zinc finger domains)), sequence (chain, as listed by the source): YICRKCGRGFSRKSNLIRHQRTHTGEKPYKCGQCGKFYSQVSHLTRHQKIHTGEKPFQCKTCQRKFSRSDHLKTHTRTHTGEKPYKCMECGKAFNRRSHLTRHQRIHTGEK
F2646 (artificial (human zinc finger domains)), sequence (chain, as listed by the source): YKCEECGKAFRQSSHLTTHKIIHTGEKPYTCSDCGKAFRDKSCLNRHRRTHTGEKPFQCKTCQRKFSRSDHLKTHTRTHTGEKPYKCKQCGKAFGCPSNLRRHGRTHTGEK
F480 (artificial (human zinc finger domains)), sequence (chain, as listed by the source): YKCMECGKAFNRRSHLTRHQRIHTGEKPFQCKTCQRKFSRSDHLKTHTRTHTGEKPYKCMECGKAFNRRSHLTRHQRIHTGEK
F2634 (artificial (human zinc finger domains)), sequence (chain, as listed by the source): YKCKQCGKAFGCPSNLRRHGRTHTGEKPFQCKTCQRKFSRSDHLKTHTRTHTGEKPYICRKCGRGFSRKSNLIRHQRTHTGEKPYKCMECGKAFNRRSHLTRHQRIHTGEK
F2633 (artificial (human zinc finger domains)), sequence (chain, as listed by the source): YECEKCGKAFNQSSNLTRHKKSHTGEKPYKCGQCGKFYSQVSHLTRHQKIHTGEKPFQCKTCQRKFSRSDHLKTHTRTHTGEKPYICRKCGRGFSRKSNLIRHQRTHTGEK
F2615 (artificial (human zinc finger domains)), sequence (chain, as listed by the source): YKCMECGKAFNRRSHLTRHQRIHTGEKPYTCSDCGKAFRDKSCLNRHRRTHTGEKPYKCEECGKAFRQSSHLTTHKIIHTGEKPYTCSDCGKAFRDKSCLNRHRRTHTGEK
F2679 (artificial (human zinc finger domains)), sequence (chain, as listed by the source): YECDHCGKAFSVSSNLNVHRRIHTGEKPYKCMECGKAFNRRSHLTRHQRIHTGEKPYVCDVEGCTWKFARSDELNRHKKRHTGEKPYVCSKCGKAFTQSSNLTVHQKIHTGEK
F2605 (artificial (human zinc finger domains)), sequence (chain, as listed by the source): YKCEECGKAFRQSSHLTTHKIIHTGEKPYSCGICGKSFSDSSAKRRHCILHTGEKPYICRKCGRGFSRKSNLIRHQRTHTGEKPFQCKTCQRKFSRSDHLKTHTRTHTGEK
F2610 (artificial (human zinc finger domains)), sequence (chain, as listed by the source): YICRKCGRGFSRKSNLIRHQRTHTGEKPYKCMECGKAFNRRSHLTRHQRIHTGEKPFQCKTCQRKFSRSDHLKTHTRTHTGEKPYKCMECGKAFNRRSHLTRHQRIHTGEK
F2607 (artificial (human zinc finger domains)), sequence (chain, as listed by the source): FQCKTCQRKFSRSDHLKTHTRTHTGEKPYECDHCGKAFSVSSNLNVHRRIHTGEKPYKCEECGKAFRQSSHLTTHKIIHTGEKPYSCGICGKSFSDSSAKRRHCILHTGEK
F121 (artificial (human zinc finger domains)), sequence (chain, as listed by the source): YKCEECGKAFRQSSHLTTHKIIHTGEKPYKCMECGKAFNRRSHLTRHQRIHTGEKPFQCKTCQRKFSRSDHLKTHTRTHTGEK
F475 (artificial (human zinc finger domains)), sequence (chain, as listed by the source): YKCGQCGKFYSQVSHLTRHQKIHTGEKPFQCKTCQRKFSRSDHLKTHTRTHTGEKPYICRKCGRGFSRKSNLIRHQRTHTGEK

B1: VEGF-A -630R (dsDNA)
DNA 1: AGGGGGTGGGGG
DNA 2: CCCCCACCCCCT
With B1, the activity with F2612 worked out at 2000 pg/mL.

B2: VEGF-A -455 (9 bp) (dsDNA)
DNA 1: GAGCGGGGA
DNA 2: TCCCCGCTC
Turning to B2, the activity with F475 was 4150.

B3: VEGF-A +244R (dsDNA)
DNA 1: CAAGTGGGGAAT
DNA 2: ATTCCCCACTTG
On to B3, for which the activity with F2679 is 1500 pg/mL.

B4: VEGF-A -395R (dsDNA)
DNA 1: GGGGAGAGGGAC
DNA 2: GTCCCTCTCCCC
Take B4: the activity with F2634 stood at 2100.

B5: VEGF-A -680 (dsDNA)
DNA 1: GTTTGGGAGGTC
DNA 2: GACCTCCCAAAC
B5: the activity with F2604 was 1000.

B6: VEGF-A -358R (dsDNA)
DNA 1: GGGGCAGGGGAA
DNA 2: TTCCCCTGCCCC
Turning to B6, in the data set with F2644, the activity is 4200.

B7: VEGF-A -455 (12 bp) (dsDNA)
DNA 1: GAGCGGGGAGAA
DNA 2: TTCTCCCCGCTC
In the case of B7, the activity with F2633 is 4500.

B8: VEGF-A -671 (dsDNA)
DNA 1: GTCAGAAATAGG
DNA 2: CCTATTTCTGAC
B8: in the data set with F2607, the activity was found to be 1600 pg/mL.

B9: VEGF-A -677 (dsDNA)
DNA 1: TGGGAGGTCAGA
DNA 2: TCTGACCTCCCA
As to B9, the activity in the data set with F2605 is 3700.

B10: VEGF-A -536 (dsDNA)
DNA 1: GAGCGAGCAGCG
DNA 2: CGCTGCTCGCTC
Consider B10, for which, in the data set with F109-KRAB, the activity worked out at 6.1 fold repression.

B11: VEGF-A -633R (9 bp) (dsDNA)
DNA 1: GGGTGGGGG
DNA 2: CCCCCACCC
In the case of B11, in the data set with F480, the activity turned out to be 3100.

B12: VEGF-A -633R (12 bp) (dsDNA)
DNA 1: GGGTGGGGGGAG
DNA 2: CTCCCCCCACCC
For the molecule B12, in the data set with F2610, the activity was 2300.

B13: VEGF-A +434 (dsDNA)
DNA 1: TGGGGGTGA
DNA 2: TCACCCCCA
On to B13, for which the activity in the data set with F121-KRAB came to 8.7 fold repression; with F121, 1300 pg/mL.

B14: VEGF-A -314R (dsDNA)
DNA 1: GACAGGGCCTGA
DNA 2: TCAGGCCCTGTC
For the molecule B14, the activity in the data set with F2646 is 3400.

B15: VEGF-A -391R (12 bp) (dsDNA)
DNA 1: GGGTGGGGAGAG
DNA 2: CTCTCCCCACCC
Consider B15, for which the activity with F2638 came out at 1900.

B16: VEGF-A -606 (dsDNA)
DNA 1: GCCAGAGCCGGG
DNA 2: CCCGGCTCTGGC
As for B16, the activity with F2615 worked out at 2700.

B17: VEGF-A -206 (dsDNA)
DNA 1: GGTGGGGGTCGA
DNA 2: TCGACCCCCACC
B17: the activity in the data set with F2650 came to 4400.
